Measurements from the supplement of paper PMC9732359.
± gives the uncertainty stated by the source.

Test: protein stability index of a GFP-peptide fusion (yeast GPS) (PSI 1-4); higher = more stable; sorted into four equal gates, so the index is relative within each strain
In short: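 Sequencing reads from sorted gates were used to score each peptide. The library consisted of tiled 17-residue yeast protein peptides fused downstream of GFP on a Cherry-expressing plasmid, pooled and carried in yeast. Mid-log cultures in leucine-free medium were split into four equal gates by GFP/Cherry ratio, and each gate's plasmids were PCR-amplified and Illumina-sequenced. The protein stability index adds up, over all gates, the read frequency multiplied by the gate number.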

Sequence | protein stability index (doa10∆) | protein stability index (pdr5∆) | protein stability index (san1∆) | protein stability index (ubr1∆)
LTSVTRHGFNRSNTGAL [RPO21] | 2.48 ± 0.067 | 2.39 ± 0.063 | 2.75 ± 0.093 | 2.51 ± 0.058
ATTGGGLFGNKPNNTAN [YGL172W/NUP49] | 3.62 ± 0.25 | 3.29 ± 0.21 | 3.66 ± 0.083 | 3.54 ± 0.18
TPEKDLFIGLFTRPLFV [YCS4] | 1.54 ± 0.084 | 1.32 ± 0.079 | 1.96 ± 0.27 | 1.45 ± 0.096
KDVKAWAGKRLWDQDIA [COR1] | 3.52 ± 0.11 | 3.4 ± 0.11 | 3.27 ± 0.061 | 3.2 ± 0.091
GIRGKLVTIEGALIHKA [SMC1] | 3.33 ± 0.2 | 2.95 ± 0.17 | 2.88 ± 0.13 | 
AFPKDDRSKPVALTSFL [RPL3] | 2.77 ± 0.1 | 2.75 ± 0.083 | 3.33 ± 0.054 | 1.95 ± 0.045
TCSSDQHIKVFKLDKDT [YGL100W/SEH1] | 3 ± 0.098 | 3.07 ± 0.087 | 3.46 ± 0.087 | 3.43 ± 0.097
QQQQQQQQPQPQYNMNM [PGD1] | 2.33 ± 0.07 | 2.79 ± 0.065 | 2.67 ± 0.11 | 2.81 ± 0.16
DFSLRYISNLLYGVTIC [REC8] | 2.13 ± 0.039 | 1.71 ± 0.041 | 1.83 ± 0.074 | 1.5 ± 0.027
KNPKFSNAFYSVLRDTL [SMC4] | 2.1 ± 0.084 | 2.34 ± 0.11 | 2.13 ± 0.093 | 2.13 ± 0.11
LIALSLIMALLQFRPAP [SMC2] | 1.62 ± 0.029 | 1.3 ± 0.026 | 1.36 ± 0.048 | 1.3 ± 0.025
TAFALGIACAGKGLQSA [RPN2] | 1.25 ± 0.086 | 1.33 ± 0.11 | 1.3 ± 0.17 | 1.19 ± 0.076
STGAADGGYNAQLAKAK [SMC2] | 3.31 ± 0.15 | 3.47 ± 0.11 | 3.22 ± 0.084 | 3.3 ± 0.13
LRSNKCILYDADESKMA [RET1] |  | 3.07 ± 0.18 |  | 
DRTQDRADVEDESNDID [RPC37] | 3.33 ± 0.087 | 3.52 ± 0.092 | 3.13 ± 0.11 | 3.4 ± 0.073
YSPSNEISISFDVNNID [YDL116W/NUP84] | 2.4 ± 0.095 | 2.62 ± 0.071 | 2.31 ± 0.12 | 2.58 ± 0.067
LKKQLHVSHEAMREVND [YIL149C/MLP2] | 2.77 ± 0.066 | 2.24 ± 0.058 | 2.91 ± 0.07 | 2.85 ± 0.076
EQTRTILSVKLAELINM [SRB6] |  |  | 2.91 ± 0.24 | 
LRLSNFFTIDHFIQKLH [SIR2] | 2.32 ± 0.085 | 2.2 ± 0.07 | 2.23 ± 0.074 | 2.05 ± 0.068
VANSPNKRLDVIDGKLP [YDL088C/ASM4] | 3.03 ± 0.068 | 2.8 ± 0.067 | 2.42 ± 0.094 | 2.11 ± 0.058
IESQMRDLILTEYGRKY [PRP8] | 2.2 ± 0.1 | 2.04 ± 0.073 | 1.98 ± 0.098 | 3.03 ± 0.092
VEDALDKDSTKEVASLP [FAS2] | 3.15 ± 0.13 |  | 3.12 ± 0.12 | 
PNHNSPVVINLDAKNKV [RPO31] | 2.92 ± 0.16 | 3.08 ± 0.19 |  | 3.03 ± 0.24
VLPKIFNSVKSFDEWFN [SNF2] | 2.83 ± 0.18 | 2.43 ± 0.078 | 1.55 ± 0.2 | 1.77 ± 0.077
LKSKVIDSPELLSLIST [RPN7] | 2.48 ± 0.038 | 2.63 ± 0.045 | 2.4 ± 0.049 | 2.61 ± 0.041
ESKFILEALRQNYRLDG [RRP45] |  |  | 2.95 ± 0.28 | 
SYFSPINSSNEALVQAF [YCG1] | 2.33 ± 0.063 | 2.19 ± 0.061 | 2.69 ± 0.072 | 2.25 ± 0.042

Sequence | protein stability index (doa10∆) | protein stability index (pdr5∆) | protein stability index (san1∆) | protein stability index (ubr1∆)
TSDNLLTITKAAGANVD [RPP1B] | 1.97 ± 0.066 | 2.13 ± 0.056 | 3.05 ± 0.08 | 2.26 ± 0.082
EMSNKVLKVDKRFMNTS [BRR2] | 2.9 ± 0.04 | 2.96 ± 0.05 | 2.99 ± 0.038 | 2.93 ± 0.039
TVPNINFSGLNGGITNT [YOR098C/NUP1] | 3.45 ± 0.15 | 3.35 ± 0.22 | 3.74 ± 0.11 | 3.67 ± 0.12
IHVLEQDGGIMGSLING [SKI6] | 3.45 ± 0.09 | 3.1 ± 0.1 | 3.36 ± 0.082 | 3.18 ± 0.066
LTKKYSFKIFVDVLVIS [RRP42] | 1.22 ± 0.049 | 1.25 ± 0.051 | 1.41 ± 0.071 | 1.44 ± 0.039
FIKEIHKSIELISNLLF [YCS4] | 1.89 ± 0.047 | 2.16 ± 0.051 | 2.48 ± 0.052 | 2.46 ± 0.034
DLKRFVDESLLSTLPAG [QCR2] | 3.02 ± 0.067 | 3.23 ± 0.085 | 2.52 ± 0.099 | 3 ± 0.051
DYRPAEETEAQAEPVEA [RPS3] | 2.93 ± 0.075 | 3.26 ± 0.065 | 3.14 ± 0.038 | 3.17 ± 0.052
LENQKDLVIVDENELKK [MTW1] | 3.65 ± 0.23 |  |  | 
DTSAEKDQIQAGKWFDP [SIR4] | 3.51 ± 0.12 | 3.57 ± 0.14 | 3.38 ± 0.12 | 3.38 ± 0.18
LLSLNSVRSLQKRIENG [SRP68] | 2.13 ± 0.069 | 1.65 ± 0.063 | 2.1 ± 0.091 | 2.25 ± 0.078
NVLDYFAESPFFDKTSN [MED6] | 3.46 ± 0.068 | 2.99 ± 0.085 | 2.87 ± 0.062 | 3.04 ± 0.051
AISGKKTTYYYYNEEGI [RPC82] | 2.61 ± 0.067 | 2.97 ± 0.14 | 2.8 ± 0.056 | 3.06 ± 0.076
FRNNKNDNYSSDMENDN [REC8] | 3.44 ± 0.18 | 3.15 ± 0.23 | 3.2 ± 0.17 | 2.73 ± 0.11
ISRERDLFTHLWNQWLK [SRP68] | 3.04 ± 0.12 | 3.06 ± 0.12 | 2.99 ± 0.055 | 2.93 ± 0.11
AELRPLQFKSIREIDVA [RPS7A] | 2.26 ± 0.093 | 1.67 ± 0.1 | 1.97 ± 0.24 | 1.43 ± 0.068
NVYRVTVHKTFEGNVAT [PRP8] |  | 3.16 ± 0.23 | 3.23 ± 0.22 | 3.33 ± 0.15
PSENDVFYRMQQLRRAL [RPO31] | 2.03 ± 0.056 | 1.94 ± 0.046 | 2.5 ± 0.1 | 2.14 ± 0.067
SKAFKESSDFGAIILTK [SRP54] | 2.12 ± 0.073 | 1.57 ± 0.056 | 1.56 ± 0.17 | 1.67 ± 0.06
KNAVVRSKFGGDFLDFQ [ARP7] | 3 ± 0.13 | 2.57 ± 0.12 | 3.31 ± 0.094 | 3.21 ± 0.083
NVYVLPKNLLKKFIEIS [PRP8] | 1.93 ± 0.048 | 2.16 ± 0.045 | 2.06 ± 0.084 | 1.79 ± 0.048
DEESLVKYMPEQKITEI [RPO21] | 3.23 ± 0.12 | 2.94 ± 0.098 | 2.99 ± 0.1 | 3.12 ± 0.056
DELETKAEKKVELHGKR [PRP8] | 2.84 ± 0.19 | 2.95 ± 0.17 | 3.4 ± 0.26 | 2.63 ± 0.18
DRQLHEISTSKKNNLEF [RPN14] | 2.96 ± 0.064 | 3.13 ± 0.075 | 2.93 ± 0.071 | 3.17 ± 0.093
ALQNLSQLPITPMTRIS [YGL172W/NUP49] | 2.31 ± 0.13 | 1.95 ± 0.12 | 1.66 ± 0.21 | 1.92 ± 0.065
KYISAELYAQLRENGLV [SNU114] | 2.91 ± 0.13 | 2.99 ± 0.12 | 3.21 ± 0.092 | 3.07 ± 0.076
ERVRLRPEQLSNIIHDE [SNF6] | 1.73 ± 0.06 | 2.23 ± 0.068 | 1.76 ± 0.083 | 1.99 ± 0.041
